Measured values published in patent US10400230B2, “Protease variants and polynucleotides encoding same” (NOVOZYMES A/S, priority 2014, dated 2019).

B1: S27K, S173P, G174K, S175P, F180Y, L184F, Q198E, N199K, T297P: TY145 protease (SEQ ID NO 3) variant with these substitutions (protein, listed as Bacillus sp.)
chain: AVPSTQTPWGIKSIYNDQSITKTTGGKGIKVAVLDTGVYTSHLDLAGSAEQCKDFTQSNPLVDGSCTDRQGHGTHVAGTVLAHGGSNGQGVYGVAPQAKLWAYKVLGDNGSGYSDDIAAAIRHVADEASRTGSKVVINMSLGSSAKDSLIASAVDYAYGKGVLIVAAAGNSGPKPNTIGYPGGFVNAVAVAALENVQEKGTYRVADFSSRGNPATAGDYIIQERDIEVSAPGASVESTWYTGGYNTISGTSMATPHVAGLAAKIWSANTSLSHSQLRTELQNRAKVYDIKGGIGAGPGDDYASGFGYPRVK
B2: S27K, S173P, G174K, S175P, F180Y, L184Y, Q197K, Q198E, T297P: TY145 protease (SEQ ID NO 3) variant with these substitutions (protein, listed as Bacillus sp.)
chain: AVPSTQTPWGIKSIYNDQSITKTTGGKGIKVAVLDTGVYTSHLDLAGSAEQCKDFTQSNPLVDGSCTDRQGHGTHVAGTVLAHGGSNGQGVYGVAPQAKLWAYKVLGDNGSGYSDDIAAAIRHVADEASRTGSKVVINMSLGSSAKDSLIASAVDYAYGKGVLIVAAAGNSGPKPNTIGYPGGYVNAVAVAALENVKENGTYRVADFSSRGNPATAGDYIIQERDIEVSAPGASVESTWYTGGYNTISGTSMATPHVAGLAAKIWSANTSLSHSQLRTELQNRAKVYDIKGGIGAGPGDDYASGFGYPRVK
B3: S27K, S171N, S173P, G174R, S175P, F180Y, L184W, Q198E, T297P: TY145 protease (SEQ ID NO 3) variant with these substitutions (protein, listed as Bacillus sp.)
chain: AVPSTQTPWGIKSIYNDQSITKTTGGKGIKVAVLDTGVYTSHLDLAGSAEQCKDFTQSNPLVDGSCTDRQGHGTHVAGTVLAHGGSNGQGVYGVAPQAKLWAYKVLGDNGSGYSDDIAAAIRHVADEASRTGSKVVINMSLGSSAKDSLIASAVDYAYGKGVLIVAAAGNNGPRPNTIGYPGGWVNAVAVAALENVQENGTYRVADFSSRGNPATAGDYIIQERDIEVSAPGASVESTWYTGGYNTISGTSMATPHVAGLAAKIWSANTSLSHSQLRTELQNRAKVYDIKGGIGAGPGDDYASGFGYPRVK
B4: S27K, S171N, S173P, G174R, S175P, F180Y, L184Y, Q198E, T297P: TY145 protease (SEQ ID NO 3) variant with these substitutions (protein, listed as Bacillus sp.)
chain: AVPSTQTPWGIKSIYNDQSITKTTGGKGIKVAVLDTGVYTSHLDLAGSAEQCKDFTQSNPLVDGSCTDRQGHGTHVAGTVLAHGGSNGQGVYGVAPQAKLWAYKVLGDNGSGYSDDIAAAIRHVADEASRTGSKVVINMSLGSSAKDSLIASAVDYAYGKGVLIVAAAGNNGPRPNTIGYPGGYVNAVAVAALENVQENGTYRVADFSSRGNPATAGDYIIQERDIEVSAPGASVESTWYTGGYNTISGTSMATPHVAGLAAKIWSANTSLSHSQLRTELQNRAKVYDIKGGIGAGPGDDYASGFGYPRVK
B5: S173P, S175P, F180Y, R224D: TY145 protease (SEQ ID NO 3) variant with these substitutions (protein, listed as Bacillus sp.)
chain: AVPSTQTPWGIKSIYNDQSITKTTGGSGIKVAVLDTGVYTSHLDLAGSAEQCKDFTQSNPLVDGSCTDRQGHGTHVAGTVLAHGGSNGQGVYGVAPQAKLWAYKVLGDNGSGYSDDIAAAIRHVADEASRTGSKVVINMSLGSSAKDSLIASAVDYAYGKGVLIVAAAGNSGPGPNTIGYPGGLVNAVAVAALENVQQNGTYRVADFSSRGNPATAGDYIIQEDDIEVSAPGASVESTWYTGGYNTISGTSMATPHVAGLAAKIWSANTSLSHSQLRTELQNRAKVYDIKGGIGAGTGDDYASGFGYPRVK
B6: S27K, S173P, G174K, S175P, F180Y, L184F, Q198E, N199R, T297P: TY145 protease (SEQ ID NO 3) variant with these substitutions (protein, listed as Bacillus sp.)
chain: AVPSTQTPWGIKSIYNDQSITKTTGGKGIKVAVLDTGVYTSHLDLAGSAEQCKDFTQSNPLVDGSCTDRQGHGTHVAGTVLAHGGSNGQGVYGVAPQAKLWAYKVLGDNGSGYSDDIAAAIRHVADEASRTGSKVVINMSLGSSAKDSLIASAVDYAYGKGVLIVAAAGNSGPKPNTIGYPGGFVNAVAVAALENVQERGTYRVADFSSRGNPATAGDYIIQERDIEVSAPGASVESTWYTGGYNTISGTSMATPHVAGLAAKIWSANTSLSHSQLRTELQNRAKVYDIKGGIGAGPGDDYASGFGYPRVK
B7: S173P, S175P, F180Y, L184W: TY145 protease (SEQ ID NO 3) variant with these substitutions (protein, listed as Bacillus sp.)
chain: AVPSTQTPWGIKSIYNDQSITKTTGGSGIKVAVLDTGVYTSHLDLAGSAEQCKDFTQSNPLVDGSCTDRQGHGTHVAGTVLAHGGSNGQGVYGVAPQAKLWAYKVLGDNGSGYSDDIAAAIRHVADEASRTGSKVVINMSLGSSAKDSLIASAVDYAYGKGVLIVAAAGNSGPGPNTIGYPGGWVNAVAVAALENVQQNGTYRVADFSSRGNPATAGDYIIQERDIEVSAPGASVESTWYTGGYNTISGTSMATPHVAGLAAKIWSANTSLSHSQLRTELQNRAKVYDIKGGIGAGTGDDYASGFGYPRVK
B8: S173P, S175P, F180Y, L184D: TY145 protease (SEQ ID NO 3) variant with these substitutions (protein, listed as Bacillus sp.)
chain: AVPSTQTPWGIKSIYNDQSITKTTGGSGIKVAVLDTGVYTSHLDLAGSAEQCKDFTQSNPLVDGSCTDRQGHGTHVAGTVLAHGGSNGQGVYGVAPQAKLWAYKVLGDNGSGYSDDIAAAIRHVADEASRTGSKVVINMSLGSSAKDSLIASAVDYAYGKGVLIVAAAGNSGPGPNTIGYPGGDVNAVAVAALENVQQNGTYRVADFSSRGNPATAGDYIIQERDIEVSAPGASVESTWYTGGYNTISGTSMATPHVAGLAAKIWSANTSLSHSQLRTELQNRAKVYDIKGGIGAGTGDDYASGFGYPRVK
B9: S173P, S175P, F180Y, L184Y: TY145 protease (SEQ ID NO 3) variant with these substitutions (protein, listed as Bacillus sp.)
chain: AVPSTQTPWGIKSIYNDQSITKTTGGSGIKVAVLDTGVYTSHLDLAGSAEQCKDFTQSNPLVDGSCTDRQGHGTHVAGTVLAHGGSNGQGVYGVAPQAKLWAYKVLGDNGSGYSDDIAAAIRHVADEASRTGSKVVINMSLGSSAKDSLIASAVDYAYGKGVLIVAAAGNSGPGPNTIGYPGGYVNAVAVAALENVQQNGTYRVADFSSRGNPATAGDYIIQERDIEVSAPGASVESTWYTGGYNTISGTSMATPHVAGLAAKIWSANTSLSHSQLRTELQNRAKVYDIKGGIGAGTGDDYASGFGYPRVK
B10: S27K, S173P, G174K, S175P, F180Y, L184Y, Q198E, N199K, T297P: TY145 protease (SEQ ID NO 3) variant with these substitutions (protein, listed as Bacillus sp.)
chain: AVPSTQTPWGIKSIYNDQSITKTTGGKGIKVAVLDTGVYTSHLDLAGSAEQCKDFTQSNPLVDGSCTDRQGHGTHVAGTVLAHGGSNGQGVYGVAPQAKLWAYKVLGDNGSGYSDDIAAAIRHVADEASRTGSKVVINMSLGSSAKDSLIASAVDYAYGKGVLIVAAAGNSGPKPNTIGYPGGYVNAVAVAALENVQEKGTYRVADFSSRGNPATAGDYIIQERDIEVSAPGASVESTWYTGGYNTISGTSMATPHVAGLAAKIWSANTSLSHSQLRTELQNRAKVYDIKGGIGAGPGDDYASGFGYPRVK

Test: Determination of binding constants of inhibitor (NNIC) in Model B detergent, Suc-AAPF-pNA read-out
Assay type: biochemical
Conditions: Ki of variant with the mutation relative to variant without the mutation, <1.0 beneficial
Procedure: Purified protease variants are pre-diluted to approximately 0.2 mg/ml in dilution buffer. 40 μl diluted protease is then mixed with 40 μl inhibitor solution (Z-Gly-Ala-NHCH(CH2C6H4pOH)C(OH)(SO3Na)—H, wherein Z is benzyloxycarbonyl) or 40 μl 4-FPBA solution in the well of a 96 well microtiter plate (Nunc F 96-MTP). […] After 10 min mixing of protease and inhibitor at room temperature, 30 μl of the mixture is transferred to a microtiter plate (Nunc U96 PP 0.5 ml) with 270 μl Model B detergent in the wells resulting in inhibitor concentrations of 0-30 μM and 4-FPBA concentrations of 0-6000 μM. Protease, inhibitor and detergent is mixed for 1 hour using magnetic bars for 1 hour at room temperature to reach equilibrium. Then 20 μl is transferred to a microtiter plate (Nunc F 96-MTP). 100 μl substrate solution is added and after 5 sec mixing absorbance at 405 nm is measured every 20 sec for 5 min on a SpectraMax Plus reader. Slope from linear regression of initial increase in absorbance at 405 nm is used for calculation of apparent binding constants.
It is assumed that protease and inhibitor react according to the equation: E+I ? EI
Where E is the protease, I is the inhibitor and EI is the protease-inhibitor complex. […] The concentration of enzyme-inhibitor in the detergent solution is then given by:
where Etot is the total protease concentration ([Etot]=[E]+[EI]), Itot is the total inhibitor concentration ([Itot]=[I]+[EI]), and Ki is the equilibrium binding constant for the reaction. The measured slopes V are given by:
where V0 is the slope without inhibitor added. To calculate apparent binding constant Ki least square fitting of measured slopes at various inhibitor concentrations to this equation is performed with Ki and V0 as variables.
The Ki for the parent protease and for each variant was calculated as described above
Having the Ki for each variant, it is possible to calculate the effect of a single mutation, if data are available for at least two variants that differ only by that mutation. In this case, the relative Ki for the mutation is calculated:
[formula] A lower Ki is desirable, as a satisfactory inhibition can be obtained at a lower inhibitor concentration, so beneficial mutations have a relative Ki<1.0 The following table show such relative Kimutation. Each row show: • a mutation (column 1: “Mutation”) • a protease variant (relative to SEQ ID NO: 2) that comprise the mutation from column 1 (column 2: “Variant with the mutation”) • another protease variant (relative to SEQ ID NO: 2), that differs from the one in column 2 only by not having the mutation in column 1 (column 3: “Variant without the mutation”) • Relative Kimutation for the mutation in column 1, in the context of the variant in column 3, measured in Model B detergent (column 4: “inhibitor binding in Model B”) • Relative Kimutation for the mutation in column 1, in the context of the variant in column 3, measured in Tris buffer at pH 8 (column 5: “inhibitor binding in Tris buffer pH 8”)
Ki were calculated as shown in Example 3. The Improvement Factor (IF) or Relative

In order of rising “Inhibitor-binding relative Kimutation, inhibitor binding in Model B” value:
1. B4  0.18
2. B10  0.21
3. B6  0.22
4. B9  0.24
5. B2  0.32
6. B1  0.36
7. B5  0.36
8. B8  0.37
9. B7  0.50
10. B3  0.57
